Measurements reported in the supplement of paper PMC9112550, “Optimization of the antimicrobial peptide Bac7 by deep mutational scanning” (BMC Biology, 2022).

Test system: Escherichia coli TOP10
Assay: shrunken log2 fold change of peptide-encoding DNA abundance (4.5 h post-induction vs induction); higher = less antimicrobial activity (less host growth inhibition)
Conditions: time post-induction: 4.5 h; library: site-saturation at positions 5, 18, 19, 20
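Note: peptides expressed intracellularly from a pBAD plasmid library in pooled LB shake-flask culture, induced with 0.3% L-arabinose, DNA abundance read by NGS, three biological replicates, DESeq2 with apeglm shrinkage.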

## RRIRSRPPRLPRPRPRPGVTPRP
  shrunken log2 fold change: 0.0674

## RRIRKRPPRLPRPRPRPKGAPRP
  shrunken log2 fold change: 0.217

## RRIRYRPPRLPRPRPRPQSSPRP
  shrunken log2 fold change: -0.687

## RRIRSRPPRLPRPRPRPHHSPRP
  shrunken log2 fold change: -0.464

## RRIRIRPPRLPRPRPRPGGRPRP
  shrunken log2 fold change: 0.229

## RRIRNRPPRLPRPRPRPSFMPRP
  shrunken log2 fold change: -1.21

## RRIRYRPPRLPRPRPRPQLKPRP
  shrunken log2 fold change: -0.526

## RRIRYRPPRLPRPRPRPSSGPRP
  shrunken log2 fold change: 0.00646

## RRIRMRPPRLPRPRPRPSLNPRP
  shrunken log2 fold change: -0.0544

## RRIRNRPPRLPRPRPRPHTWPRP
  shrunken log2 fold change: -0.296

## RRIRGRPPRLPRPRPRPDQVPRP
  shrunken log2 fold change: 0.656

## RRIRPRPPRLPRPRPRPHWEPRP
  shrunken log2 fold change: -0.146

## RRIRMRPPRLPRPRPRPRQAPRP
  shrunken log2 fold change: 0.013

## RRIRARPPRLPRPRPRPSTNPRP
  shrunken log2 fold change: 0.0112

## RRIRSRPPRLPRPRPRPHRFPRP
  shrunken log2 fold change: -0.301

## RRIRIRPPRLPRPRPRPTVCPRP
  shrunken log2 fold change: 0.312

## RRIRGRPPRLPRPRPRPCMWPRP
  shrunken log2 fold change: 0.29

## RRIRQRPPRLPRPRPRPWELPRP
  shrunken log2 fold change: 0.0585

## RRIRRRPPRLPRPRPRPGGNPRP
  shrunken log2 fold change: 0.475

## RRIRCRPPRLPRPRPRPVDWPRP
  shrunken log2 fold change: 1.33

## RRIRHRPPRLPRPRPRPRISPRP
  shrunken log2 fold change: 0.0117

## RRIRSRPPRLPRPRPRPKQRPRP
  shrunken log2 fold change: 0.161

## RRIRFRPPRLPRPRPRPFIGPRP
  shrunken log2 fold change: -0.362

## RRIRIRPPRLPRPRPRPGVNPRP
  shrunken log2 fold change: -0.319

## RRIRHRPPRLPRPRPRPMIFPRP
  shrunken log2 fold change: -0.251

## RRIRARPPRLPRPRPRPQLVPRP
  shrunken log2 fold change: 0.308

## RRIRIRPPRLPRPRPRPWMQPRP
  shrunken log2 fold change: -0.182

## RRIRARPPRLPRPRPRPQMAPRP
  shrunken log2 fold change: 0.274

## RRIRMRPPRLPRPRPRPKFVPRP
  shrunken log2 fold change: 0.0832

## RRIRDRPPRLPRPRPRPWSIPRP
  shrunken log2 fold change: -0.105

## RRIRFRPPRLPRPRPRPPMYPRP
  shrunken log2 fold change: -0.395

## RRIRCRPPRLPRPRPRPHPIPRP
  shrunken log2 fold change: -0.229

## RRIRRRPPRLPRPRPRPFDDPRP
  shrunken log2 fold change: -0.236

## RRIRSRPPRLPRPRPRPYYSPRP
  shrunken log2 fold change: -0.318

## RRIRARPPRLPRPRPRPSFYPRP
  shrunken log2 fold change: -0.155

## RRIRTRPPRLPRPRPRPNNVPRP
  shrunken log2 fold change: -0.227

## RRIRTRPPRLPRPRPRPENWPRP
  shrunken log2 fold change: 0.157

## RRIRIRPPRLPRPRPRPWDNPRP
  shrunken log2 fold change: -0.339

## RRIRHRPPRLPRPRPRPTAFPRP
  shrunken log2 fold change: -0.00502

## RRIRRRPPRLPRPRPRPIWTPRP
  shrunken log2 fold change: 0.181

## RRIRNRPPRLPRPRPRPLPCPRP
  shrunken log2 fold change: -0.207

## RRIRYRPPRLPRPRPRPEYHPRP
  shrunken log2 fold change: -0.0883

## RRIRSRPPRLPRPRPRPRYCPRP
  shrunken log2 fold change: -0.483

## RRIRYRPPRLPRPRPRPICYPRP
  shrunken log2 fold change: -0.691

## RRIRERPPRLPRPRPRPRRTPRP
  shrunken log2 fold change: 0.176

## RRIRPRPPRLPRPRPRPADMPRP
  shrunken log2 fold change: 0.0113

## RRIRQRPPRLPRPRPRPGYKPRP
  shrunken log2 fold change: -0.0992

## RRIRNRPPRLPRPRPRPEHLPRP
  shrunken log2 fold change: 0.0408

## RRIRDRPPRLPRPRPRPQGNPRP
  shrunken log2 fold change: -0.0306

## RRIRTRPPRLPRPRPRPEYCPRP
  shrunken log2 fold change: -0.189

## RRIRVRPPRLPRPRPRPPWFPRP
  shrunken log2 fold change: 0.0493

## RRIRIRPPRLPRPRPRPESKPRP
  shrunken log2 fold change: -0.208

## RRIRQRPPRLPRPRPRPYNSPRP
  shrunken log2 fold change: -0.198

## RRIRHRPPRLPRPRPRPVHIPRP
  shrunken log2 fold change: -0.035

## RRIRKRPPRLPRPRPRPCWLPRP
  shrunken log2 fold change: 0.246

## RRIRYRPPRLPRPRPRPLTNPRP
  shrunken log2 fold change: -0.206

## RRIRPRPPRLPRPRPRPHHFPRP
  shrunken log2 fold change: -0.0294

## RRIRRRPPRLPRPRPRPFLKPRP
  shrunken log2 fold change: -0.0464

## RRIRWRPPRLPRPRPRPYTQPRP
  shrunken log2 fold change: 0.167

## RRIRIRPPRLPRPRPRPWATPRP
  shrunken log2 fold change: 0.16

## RRIRFRPPRLPRPRPRPNNPPRP
  shrunken log2 fold change: -0.625

## RRIRRRPPRLPRPRPRPGKAPRP
  shrunken log2 fold change: 0.112

## RRIRRRPPRLPRPRPRPESNPRP
  shrunken log2 fold change: 0.219

## RRIRHRPPRLPRPRPRPLILPRP
  shrunken log2 fold change: 0.0886

## RRIRPRPPRLPRPRPRPRIWPRP
  shrunken log2 fold change: 0.362

## RRIRTRPPRLPRPRPRPEILPRP
  shrunken log2 fold change: 0.0249

## RRIRRRPPRLPRPRPRPPKNPRP
  shrunken log2 fold change: 0.671

## RRIRCRPPRLPRPRPRPRPNPRP
  shrunken log2 fold change: 0.478

## RRIRQRPPRLPRPRPRPCSLPRP
  shrunken log2 fold change: -1.03

## RRIRRRPPRLPRPRPRPPFKPRP
  shrunken log2 fold change: 0.321

## RRIRLRPPRLPRPRPRPVTFPRP
  shrunken log2 fold change: -0.0737

## RRIRMRPPRLPRPRPRPPIQPRP
  shrunken log2 fold change: 0.693

## RRIRCRPPRLPRPRPRPLYPPRP
  shrunken log2 fold change: -0.729

## RRIRDRPPRLPRPRPRPQDWPRP
  shrunken log2 fold change: 0.324

## RRIRGRPPRLPRPRPRPGIVPRP
  shrunken log2 fold change: 0.957

## RRIRMRPPRLPRPRPRPMDPPRP
  shrunken log2 fold change: 0.038

## RRIRYRPPRLPRPRPRPCVKPRP
  shrunken log2 fold change: -0.0312

## RRIRQRPPRLPRPRPRPAATPRP
  shrunken log2 fold change: 0.732

## RRIRRRPPRLPRPRPRPTEMPRP
  shrunken log2 fold change: 0.477

## RRIRWRPPRLPRPRPRPTTLPRP
  shrunken log2 fold change: -0.0826

## RRIRWRPPRLPRPRPRPGLYPRP
  shrunken log2 fold change: -0.036

## RRIRIRPPRLPRPRPRPGGPPRP
  shrunken log2 fold change: 0.0365

## RRIRGRPPRLPRPRPRPFGCPRP
  shrunken log2 fold change: -0.0567

## RRIRARPPRLPRPRPRPPSEPRP
  shrunken log2 fold change: 1.17

## RRIRNRPPRLPRPRPRPDGVPRP
  shrunken log2 fold change: 0.221

## RRIRQRPPRLPRPRPRPYTDPRP
  shrunken log2 fold change: -0.209

## RRIRERPPRLPRPRPRPIWPPRP
  shrunken log2 fold change: 0.0406

## RRIRTRPPRLPRPRPRPTNFPRP
  shrunken log2 fold change: -0.0921

## RRIRFRPPRLPRPRPRPIQRPRP
  shrunken log2 fold change: -0.107

## RRIRTRPPRLPRPRPRPERWPRP
  shrunken log2 fold change: 0.354

## RRIRTRPPRLPRPRPRPRQCPRP
  shrunken log2 fold change: 0.153

## RRIRDRPPRLPRPRPRPWRPPRP
  shrunken log2 fold change: 0.0967

## RRIRCRPPRLPRPRPRPNCHPRP
  shrunken log2 fold change: -0.314

## RRIRDRPPRLPRPRPRPKPWPRP
  shrunken log2 fold change: 0.46

## RRIRTRPPRLPRPRPRPAAVPRP
  shrunken log2 fold change: -0.0116

## RRIRQRPPRLPRPRPRPELYPRP
  shrunken log2 fold change: -0.113

## RRIRIRPPRLPRPRPRPIYLPRP
  shrunken log2 fold change: -0.811

## RRIRARPPRLPRPRPRPWGFPRP
  shrunken log2 fold change: 0.206

## RRIRQRPPRLPRPRPRPHPPPRP
  shrunken log2 fold change: 0.667

## RRIRIRPPRLPRPRPRPVVGPRP
  shrunken log2 fold change: 0.0233

## RRIRLRPPRLPRPRPRPQMDPRP
  shrunken log2 fold change: -0.16

## RRIRTRPPRLPRPRPRPVQWPRP
  shrunken log2 fold change: 0.116

## RRIRHRPPRLPRPRPRPVCHPRP
  shrunken log2 fold change: -0.198

## RRIRGRPPRLPRPRPRPKSIPRP
  shrunken log2 fold change: -0.0446

## RRIRDRPPRLPRPRPRPNGIPRP
  shrunken log2 fold change: 0.012

## RRIRMRPPRLPRPRPRPWCDPRP
  shrunken log2 fold change: 0.274

## RRIRWRPPRLPRPRPRPVIWPRP
  shrunken log2 fold change: 0.147

## RRIRARPPRLPRPRPRPWFGPRP
  shrunken log2 fold change: 0.118

## RRIRMRPPRLPRPRPRPLRLPRP
  shrunken log2 fold change: 0.959

## RRIRTRPPRLPRPRPRPFTVPRP
  shrunken log2 fold change: -0.00127

## RRIRVRPPRLPRPRPRPLQHPRP
  shrunken log2 fold change: -0.177

## RRIRFRPPRLPRPRPRPYGPPRP
  shrunken log2 fold change: -0.266

## RRIRKRPPRLPRPRPRPVSRPRP
  shrunken log2 fold change: 0.652

## RRIRCRPPRLPRPRPRPCTVPRP
  shrunken log2 fold change: -0.419

## RRIRERPPRLPRPRPRPAPPPRP
  shrunken log2 fold change: 0.422

## RRIRYRPPRLPRPRPRPTSNPRP
  shrunken log2 fold change: -0.276

## RRIRLRPPRLPRPRPRPDEKPRP
  shrunken log2 fold change: -0.00968

## RRIRFRPPRLPRPRPRPKGQPRP
  shrunken log2 fold change: 0.105

## RRIRMRPPRLPRPRPRPGPFPRP
  shrunken log2 fold change: 0.222

## RRIRQRPPRLPRPRPRPGQLPRP
  shrunken log2 fold change: -0.0292

## RRIRFRPPRLPRPRPRPVPKPRP
  shrunken log2 fold change: -0.208

## RRIRVRPPRLPRPRPRPHKQPRP
  shrunken log2 fold change: 0.0253

## RRIRTRPPRLPRPRPRPWQYPRP
  shrunken log2 fold change: 0.0126

## RRIRPRPPRLPRPRPRPCGQPRP
  shrunken log2 fold change: 0.311

## RRIRSRPPRLPRPRPRPAELPRP
  shrunken log2 fold change: 0.0682
